Experimental data from US8540999B2, “Allergenic proteins and peptides from Japanese cedar pollen” (Merck Patent GmbH, priority 1991, dated 2013).

Key:
[1] = test system: Secondary T cell cultures reactive with Cry j I protein antigen; assay: In vitro T cell proliferation assay, secondary T cell cultures of 36 Cry j I-allergic subjects, percent T cell reactivity algorithm; type: cell-based, human; conditions: patient 1308; highest S.I. >= 2.0 recorded per peptide
[2] = test system: Cry j I reactive T cells; assay: T cell proliferation assay, Cry j I primed T cell lines (Example 6); type: cell-based, human
Protocol: Viable cells were purified by LSM centrifugation and cultured in complete medium supplemented with 5 units recombinant human IL-2/ml and 5 units recombinant human IL-4/ml for up to three weeks until the cells no longer responded to lymphokines and were considered “rested”. The ability of the T cells to proliferate to selected peptides, recombinant Cry j I (rCry j I), purified native Cry j I, or recombinant Amb aI.1 (rAmb aI.1) or a positive control, phyto-hemaglutinin (PHA) was then assessed. For assay, 2×10^4 rested cells were restimulated in the presence of 2×10^4 autologous Epstein-Barr virus (EBV)-transformed B cells (prepared as described below) (gamma-irradiated with 25,000 RADS) with 2-50 μg/ml of selected peptides, Cry j I, purified native Cry j I or rAmb a I.1 or PHA, in a volume of 200 μl complete medium in duplicate or triplicate wells in 96-well round bottom plates for 2-4 days. […] Each well then received 1 μCi tritiated thymidine for 16-20 hours. The counts incorporated were collected onto glass fiber filter mats and processed for liquid scintillation counting. […] The titrations were used to optimize the dose of peptides in T cell assays. The maximum response in a titration of each peptide is expressed as the stimulation index (S.I.). The S.I. is the counts per minute (CPM) incorporated by cells in response to peptide, divided by the CPM incorporated by cells in medium only.
The above procedure was followed with a number of other patients. […] The bars represent the positivity index. Above each bar is the percent of positive responses with an S.I. of at least two to the peptide or protein in the group of patients tested. In parenthesis above each bar are the mean stimulation indices for each peptide or protein for the group of patients tested.
Autologous EBV-transformed cell lines were y-irradiated with 25,000 Rad and used as antigen presenting cells in secondary proliferation assays and secondary bulk stimulations. These EBV-transformed cell lines were made by incubating 5×10^6 PBL with 1 ml of B-59/8 Marmoset cell line (ATCC CRL1612, American Type Culture Collection, Rockville, Md.) conditioned medium in the presence of 1 μg/ml phorbol 12-myristate 13-acetate (PMA) at 37° C. for 60 minutes in 12×75 mm polypropylene round-bottom Falcon snap cap tubes (Becton Dickinson Labware, Lincoln Park, N.J.). These cells were then diluted to 1.25×10^6 cells/ml in RPMI-1640 as described above except supplemented with 10% heat-inactivated fetal bovine serum and cultured in 200 μl aliquots in flat bottom culture plates until visible colonies were detected. They were then transferred to larger wells until the cell lines were established.

[3] = test system: IgE; assay: RAST, competition ELISA and Western blotting (data not shown); type: binding, human
[4] = test system: human basophil; assay: Histamine release assay; type: cell-based; conditions: one Japanese cedar pollen allergic patient, FIG. 11
Protocol: To determine whether a peptide which binds IgE results in the release of mediators, a histamine release assay can be performed using standard reagents and protocols obtained for example, from Amac, Inc. (Westbrook, Me.). Briefly, a buffered solution of a peptide to be tested is combined with an equal volume of whole heparinized blood from an allergic subject. After mixing and incubation, the cells are pelleted and the supernatants are processed an analyzed using a radioimmunoassay to determine the amount of histamine released.
A histamine release assay was performed on one Japanese cedar pollen allergic patient using Japanese cedar pollen SPE, purified native Cry j I and rCry j I as the added antigens. This assay is a measure of IgE reactivity through human basophil mediator release. […] Two possible explanations for this release by the rCry j I are: 1) specific reactivity with a very low proportion of the anti-Cry j I IgE capable of recognizing the recombinant form of Cry j I, or 2) non-specific release caused by low abundance of bacterial contaminants observed only at the highest antigen concentration. […] In addition, the data shown are from single data points at each protein concentration.

[5] = test system: human allergic IgE; assay: Capture ELISA with MAb CBF2; type: binding; conditions: pooled human plasma (15 patients), FIG. 10a
Protocol: Another method of analysis that was applied to the examination of IgE reactivity to the recombinant Cry j I was a capture ELISA. This analysis relies on the use of a defined antibody, in this case CBF2 to bind the antigen and allow for the binding of antibodies to other epitope sites. The format of this capture ELISA is 1) wells are coated with MAb CBF2, 2) antigen or PBS (as one type of negative control) is added and captured by specific interaction with the coated MAb, 3) either the control antibody anti-Amb a I & II (FIG. 10b) or human allergic plasma (FIG. 10a) is added as the detecting antibody, and 4) detection of antibody binding is assayed. FIGS. 10a and 10b are the graphed results of these assays. For the IgE analysis, the pooled human plasma (PHP) (15 patients) was used.

[6] = test system: allergic patient IgE; assay: Direct ELISA, IgE binding to rCry j I and Cry j I peptides (Example 8); parameters: species or system human
Protocol: The recombinant Cry j I protein (rCry j I), expressed in bacteria and then purified (as described in Example 5), has been examined for IgE reactivity. The first method applied to this examination was direct ELISA where wells were coated with the recombinant Cry j I and IgE binding was assayed on individual patients. FIG. 9 is the graphic representation of this direct ELISA.
To analyze IgE reactivity to selected Cry j I peptides a direct ELISA format was used. ELSIA wells were coated with 25 peptides derived from Cry j I and assayed for IgE binding. FIG. 15a and 15b are graphs of these binding results using PHP (15 patients) as the cedar pollen allergic IgE source. This pool of plasma was formulated for enrichment of IgE that could bind to denatured SPE (as determined by direct ELISA) and therefore increase the chance of reactivity toward the peptides.

CJ1-30: Cry j I peptide, SEQ ID NO: 55 (CSNWVWQSTQDVFYNGAYFV; listed as Cryptomeria japonica)
STIMULATION INDEX [1]: 0
T cell line response ([2]; panel of twenty-five patients, FIG. 14): responded

B1: rCry j I: recombinant Cry j I protein expressed in bacteria (E. coli) and purified (protein)
chain: DNPIDSCWRGDSNWAQNRMKLADCAVGFGSSTMGGKGGDLYTVTNSDDDPVNPAPGTLRYGATRDRPLWIIFSGNMNIKLKMPMYIAGYKTFDGRGAQVYIGNGGPCVFIKRVSNVIIHGLYLYGCSTSVLGNVLINESFGVEPVHPQDGDALTLRTATNIWIDHNSFSNSSDGLVDVTLTSTGVTISNNLFFNHHKVMLLGHDDAYSDDKSMKVTVAFNQFGPNCGQRMPRARYGLVHVANNNYDPWTIYAIGGSSNPTILSEGNSFTAPNESYKKQVTIRIGCKTSSSCSNWVWQSTQDVFYNGAYFVSSGKYEGGNIYTKKEAFNVENGNATPQLTKNAGVLTCSLSKRC
modifications: left off: small tags and cut ends
notes: recombinant Cry j I protein expressed in bacteria (E. coli) and purified
percent of positive responses with an S.I. of at least two ([2]; 25 patients / T cell lines, FIG. 14): 68.0%
T cell proliferative response ([2]; patient #999, FIG. 12): responds well
specific IgE reactivity [3]: no specific IgE reactivity
histamine release [4]: only point where there is any measurable histamine release with the Cry j I is at the highest concentration
specific binding of human allergic IgE, capture ELISA [5]: no indication of any specific binding
IgE binding, direct ELISA ([6]; PHP (15 patients), FIG. 15): does not bind
IgE reactivity, direct ELISA ([6]; individual patients, FIG. 9): no IgE reactivity
